The data set in a line: Fast Protein Liquid Chromatography / size-exclusion chromatography, oligomeric state. It counts as physicochemical. The note with it: concentration of at least 10 μM. The text has this: Based on the standards, the dimeric protein would be expected to elute at the volume indicated by a dotted line, which eliminates the possibility of design oligomerization.
On the technique in general: In gel filtration, larger molecules generally elute earlier.

As to “native mCherry: Red Fluorescent Protein mCherry (PDB code 2H5Q), design template (SEQ ID NO. 1) [reference compound]”, the “oligomeric state in solution” value is on record as “monomeric”.
